Source: IntAct's records for PubMed 17581628

B1: Ras-related protein Rab-5A (Homo sapiens), P20339 (parent)
chain: MASRGATRPNGPNTGNKICQFKLVLLGESAVGKSSLVLRFVKGQFHEFQESTIGAAFLTQTVCLDDTTVKFEIWDTAGQERYHSLAPMYYRGAQAAIVVYDITNEESFARAKNWVKELQRQASPNIVIALSGNKADLANKRAVDFQEAQSYADDNSLLFMETSAKTSMNVNEIFMAIAKKLPKNEPQNPGANSARGRGVDLTEPTQPTRNQCCSN
partner: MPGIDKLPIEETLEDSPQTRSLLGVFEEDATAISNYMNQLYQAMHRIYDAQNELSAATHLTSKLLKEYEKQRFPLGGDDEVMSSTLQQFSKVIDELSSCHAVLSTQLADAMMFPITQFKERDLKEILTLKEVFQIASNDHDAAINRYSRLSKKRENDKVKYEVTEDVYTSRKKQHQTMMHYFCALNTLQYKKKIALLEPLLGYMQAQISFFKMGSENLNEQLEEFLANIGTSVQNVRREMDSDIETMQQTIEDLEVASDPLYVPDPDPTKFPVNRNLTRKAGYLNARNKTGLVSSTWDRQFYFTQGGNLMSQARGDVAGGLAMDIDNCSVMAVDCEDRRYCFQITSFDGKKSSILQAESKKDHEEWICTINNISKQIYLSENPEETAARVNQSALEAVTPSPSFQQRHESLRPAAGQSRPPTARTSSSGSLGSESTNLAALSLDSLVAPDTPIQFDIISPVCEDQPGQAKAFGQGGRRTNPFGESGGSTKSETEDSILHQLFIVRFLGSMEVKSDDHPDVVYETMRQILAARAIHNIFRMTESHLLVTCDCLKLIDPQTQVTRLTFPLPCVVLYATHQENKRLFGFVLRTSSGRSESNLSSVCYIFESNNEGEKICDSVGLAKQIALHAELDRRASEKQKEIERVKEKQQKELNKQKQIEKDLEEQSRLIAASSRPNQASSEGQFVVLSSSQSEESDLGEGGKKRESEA
B2: DCC-interacting protein 13-alpha (Homo sapiens), Q9UKG1 (parent)
chain: B1 partner

Variants of: B1
Settings: with dp13a_human APPL1, Q9UKG1

effect of a mutation on the interaction | Variant
decreasing interaction | M88S

Variants of: B1
Settings: with dp13a_human APPL1, Q9UKG1
Remark: another data set of the same source

effect of a mutation on the interaction | Variant
decreasing interaction | K42E

Variants of: B1
Settings: with dp13a_human APPL1, Q9UKG1
Remark: another data set of the same source

effect of a mutation on the interaction | Variant
decreasing interaction | F48N

Variants of: B1
Settings: with dp13a_human APPL1, Q9UKG1
Remark: another data set of the same source

effect of a mutation on the interaction | Variant
decreasing interaction | Y89R

Variants of: B1
Settings: with dp13a_human APPL1, Q9UKG1
Remark: another data set of the same source

effect of a mutation on the interaction | Variant
disrupting interaction | H46D

Variants of: B1
Settings: with dp13a_human APPL1, Q9UKG1
Remark: another data set of the same source

effect of a mutation on the interaction | Variant
disrupting interaction | L85R

Variants of: B1
Settings: with dp13a_human APPL1, Q9UKG1
Remark: another data set of the same source

effect of a mutation on the interaction | Variant
disrupting interaction | W74R

Variants of: B2
Settings: with rab21_human RAB21, Q9UL25
Chain of rab21_human RAB21, Q9UL25 (Q9UL25 whole entry): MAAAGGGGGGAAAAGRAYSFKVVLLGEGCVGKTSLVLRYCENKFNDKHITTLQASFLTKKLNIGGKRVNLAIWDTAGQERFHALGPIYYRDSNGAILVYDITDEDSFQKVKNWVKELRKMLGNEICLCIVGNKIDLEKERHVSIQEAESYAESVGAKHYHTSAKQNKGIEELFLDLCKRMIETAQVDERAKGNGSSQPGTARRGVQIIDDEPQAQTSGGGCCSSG

effect of a mutation on the interaction | Variant
decreasing interaction | E28K

Variants of: B2
Settings: with rab5a_human RAB5A

effect of a mutation on the interaction | Variant
disrupting interaction | A318D

Variants of: B2
Settings: with rab21_human RAB21, Q9UL25
Remark: another data set of the same source

effect of a mutation on the interaction | Variant
disrupting interaction | D324A

Variants of: B2
Settings: with rab5a_human RAB5A
Remark: another data set of the same source

effect of a mutation on the interaction | Variant
disrupting interaction | D324A

Variants of: B2
Settings: with rab21_human RAB21, Q9UL25
Remark: another data set of the same source

effect of a mutation on the interaction | Variant
disrupting interaction | D316R

Variants of: B2
Settings: with rab21_human RAB21, Q9UL25
Remark: another data set of the same source

effect of a mutation on the interaction | Variant
decreasing interaction | L321D

Variants of: B2
Settings: with rab5a_human RAB5A
Remark: another data set of the same source

effect of a mutation on the interaction | Variant
disrupting interaction | L321D

Variants of: B2
Settings: with rab21_human RAB21, Q9UL25
Remark: another data set of the same source

effect of a mutation on the interaction | Variant
disrupting interaction | G319R

Variants of: B2
Settings: with rab5a_human RAB5A
Remark: another data set of the same source

effect of a mutation on the interaction | Variant
disrupting interaction | G319R

Variants of: B2
Settings: with rab5a_human RAB5A
Remark: another data set of the same source

effect of a mutation on the interaction | Variant
disrupting interaction | N308D

Variants of: B2
Settings: with rab21_human RAB21, Q9UL25
Remark: another data set of the same source

effect of a mutation on the interaction | Variant
disrupting interaction | N308D

Variants of: B2
Settings: with rab5a_human RAB5A
Remark: another data set of the same source

effect of a mutation on the interaction | Variant
decreasing interaction | V25D

Variants of: B2
Settings: with rab21_human RAB21, Q9UL25
Remark: another data set of the same source

effect of a mutation on the interaction | Variant
decreasing interaction | V25D

Variants of: B2
Settings: with rab21_human RAB21, Q9UL25
Remark: another data set of the same source

effect of a mutation on the interaction | Variant
disrupting interaction | D348K

Variants of: B2
Settings: with rab5a_human RAB5A
Remark: another data set of the same source

effect of a mutation on the interaction | Variant
disrupting interaction | M310K

Variants of: B2
Settings: with rab21_human RAB21, Q9UL25
Remark: another data set of the same source

effect of a mutation on the interaction | Variant
disrupting interaction | M310K
